Measurements from paper PMC4027168.

Experiments:
Assay in all cases: EMSA
Conditions in all cases: 50 mM Tris-HCl pH 8.0, 5 mM EDTA, 1 mM DTT, 100 mg/ml BSA (so in the source), 6% glycerol, on ice 20 min, 4% native PAGE in 6.7 mM Tris-HCl pH 8.0, 3.3 mM Na …, scale: fold of wild-type affinity
[1] = test system: RecG[ΔC1] (Escherichia coli K-12 MG1655?)
[2] = test system: RecG[A693Q] (Escherichia coli K-12 MG1655?)
[3] = test system: RecG[Y690A] (Escherichia coli K-12 MG1655?)
[4] = no Mg2+, 5 mM EDTA, RecG 0-100 nM, DNA 0.2 nM

Measured: binding signal

J12 Holliday junction
1: [1]; [4] | [2]; [4] | [3]; [4]

replication fork lacking a lagging strand
1: [1] | [2] | [3]
